Assay [1] has as its target T1, recombinant human αvβ3 integrin (human, UniProt P06756 31-1048; P05106 27-718).
T1 construct: integrin αv subunit, human, recombinant; integrin β3 subunit, human, recombinant; also called rhαvβ3; integrin αvβ3; source: bought: R&D Systems (co-IP)
The experiment in a line: SPR; Biacore T200; LNA043 (~3,000 RU), FN1 or VTN (~500 RU) amine-coupled to CM5; integrins as analytes 0.6–10 μM, single-cycle kinetics, 37 °C, 1× HBS-N, 0.005% Tween 20, 1 mM MgCl2, 1 mM CaCl2, 2 mM MnCl2; 1:1 binding fit. The note with it: both partners purified.

In assay [2] the target is T2, recombinant human α5β1 integrin (human, UniProt P08648 42-1049; P05556 21-728).
T2 construct: integrin α5 subunit, human, recombinant; integrin β1 subunit, human, recombinant; also called rhα5β1; integrin α5β1; source: bought: R&D Systems (co-IP)
The description is as above. The note with it: both partners purified.

In article PMC9800282 (Nature Medicine, 2022) one finds Kd data, which are given here for one molecule.

T1 sequence (P06756 31-1048, chain 1 of 2): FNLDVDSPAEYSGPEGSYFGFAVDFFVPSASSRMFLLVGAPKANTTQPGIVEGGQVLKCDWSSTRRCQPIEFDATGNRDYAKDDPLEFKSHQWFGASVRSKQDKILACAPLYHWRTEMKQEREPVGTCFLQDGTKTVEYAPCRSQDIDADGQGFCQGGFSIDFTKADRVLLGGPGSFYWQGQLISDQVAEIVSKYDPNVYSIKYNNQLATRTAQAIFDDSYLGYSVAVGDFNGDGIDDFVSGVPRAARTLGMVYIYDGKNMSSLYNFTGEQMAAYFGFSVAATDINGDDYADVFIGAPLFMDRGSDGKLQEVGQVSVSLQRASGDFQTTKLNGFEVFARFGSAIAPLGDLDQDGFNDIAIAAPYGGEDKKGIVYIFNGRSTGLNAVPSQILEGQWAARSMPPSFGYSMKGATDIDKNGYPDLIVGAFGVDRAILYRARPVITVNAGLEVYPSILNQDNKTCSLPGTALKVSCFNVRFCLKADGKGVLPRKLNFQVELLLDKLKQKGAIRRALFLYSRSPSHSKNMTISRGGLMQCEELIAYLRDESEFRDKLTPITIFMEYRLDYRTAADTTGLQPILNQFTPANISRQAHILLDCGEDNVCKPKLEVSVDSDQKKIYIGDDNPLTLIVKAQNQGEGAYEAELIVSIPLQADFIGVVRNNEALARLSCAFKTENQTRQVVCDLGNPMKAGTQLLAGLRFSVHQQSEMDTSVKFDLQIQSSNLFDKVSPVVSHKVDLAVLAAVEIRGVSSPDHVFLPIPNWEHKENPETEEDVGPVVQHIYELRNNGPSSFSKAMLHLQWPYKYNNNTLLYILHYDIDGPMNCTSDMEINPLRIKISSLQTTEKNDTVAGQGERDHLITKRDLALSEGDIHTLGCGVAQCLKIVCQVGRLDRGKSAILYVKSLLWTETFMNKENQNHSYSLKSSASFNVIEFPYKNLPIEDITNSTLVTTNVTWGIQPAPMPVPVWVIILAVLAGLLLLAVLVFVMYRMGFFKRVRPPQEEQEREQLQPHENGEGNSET
T1 sequence (P05106 27-718, chain 2 of 2): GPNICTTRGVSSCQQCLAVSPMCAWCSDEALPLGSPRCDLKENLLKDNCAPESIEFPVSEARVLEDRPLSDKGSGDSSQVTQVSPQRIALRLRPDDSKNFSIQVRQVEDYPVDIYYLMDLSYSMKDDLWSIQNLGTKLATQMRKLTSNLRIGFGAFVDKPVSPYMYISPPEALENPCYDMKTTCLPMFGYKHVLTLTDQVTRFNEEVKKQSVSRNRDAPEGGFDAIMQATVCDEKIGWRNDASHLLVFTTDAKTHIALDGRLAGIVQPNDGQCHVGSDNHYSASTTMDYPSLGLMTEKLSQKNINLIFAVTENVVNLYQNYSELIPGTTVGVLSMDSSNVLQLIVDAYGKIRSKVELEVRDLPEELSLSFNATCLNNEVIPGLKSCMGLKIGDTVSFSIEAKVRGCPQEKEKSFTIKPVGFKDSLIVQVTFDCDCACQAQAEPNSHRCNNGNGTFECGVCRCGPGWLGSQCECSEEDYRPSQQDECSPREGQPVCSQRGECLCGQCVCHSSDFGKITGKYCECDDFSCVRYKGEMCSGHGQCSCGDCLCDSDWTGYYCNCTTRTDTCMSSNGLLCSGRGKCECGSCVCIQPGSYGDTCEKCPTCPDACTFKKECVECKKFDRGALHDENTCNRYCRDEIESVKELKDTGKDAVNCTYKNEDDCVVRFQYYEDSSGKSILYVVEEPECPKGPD

B1: LNA043 (domain or fragment)
chain: IPAECTTIYNRGEHTSGMYAIRPSNSQVFHVYCDVISGSPWTLIQHRIDGSQNFNETWENYKYGFGRLDGEFWLGLEKIYSIVKQSNYVLRIELEDWKDNKHYIEYSFYLGNHETNYTLHLVAITGNVPNAIPENKDLVFSTWDHKAKGHFNCPEGYSGGWWWHDECGENNLNGKYNKPRAQSKPERRRGLSWKSQNGRLYSIKSTKMLIHPTDSESFE
Broadly, the Kd is the concentration at which binding is half-saturated. As to B1, the equilibrium dissociation constant (Kd) in assay [1] is approximately 7.9 µM; in assay [2], approximately 1.5 µM.
